{"source": "paper PMC4144707", "about": "(Biochemistry, 2014)", "biological_target": "the molecule itself", "assay": "deuterium MAS solid-state NMR", "note": "Where no end group is shown, it is not given here.", "data": [{"protein": "RRAGSVYAGILSYGVGFFLFILVVEAVTLCRLRSPPKKGLG-NH2 (also: (5,5,5-d3) leucine at 385 or 388)", "note": "[FGFR3 TM–JM (A391E) peptide, FGFR3 (369–407) with two N-terminal arginines]", "values": [{"measurement": "binding result", "value": "binds"}]}, {"protein": "RRAGSVYAGILSYGVGFFLFILVVAAVTLCRLRSPPKKGLG-NH2 (also: (5,5,5-d3) leucine at 385 or 388)", "note": "[FGFR3 TM–JM (WT) peptide, FGFR3 (369–407) with two N-terminal arginines]", "values": [{"measurement": "binding result", "value": "binds"}]}]}
